The source of these data is the supplement of paper PMC10567573.

To fix the notation:
B1: CRYL1 (parent)
chain: RNALENIRKEMKLLEQAGSLKGSL
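Note: lentivirally expressed fusions sorted by FACS into six bins by GFP to DsRed ratio, PSI derived from sequencing read proportions per bin multiplied by bin number.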

This series covers variants of B1. As to the kind of experiment: protein stability index of a GFP-peptide fusion (GPS, HEK-293T) (PSI 1-6); higher = more stable. Particulars: c terminus: a fixed tail appended.
As for RNALENIRKEMKLLEQAGSLKQSL [G22Q], the protein stability index was 3.36.

For the variant RNALENIRKEMKLLEQAGSLKSSL [G22S], the protein stability index stood at 3.14.

For the variant RNALENIRKEMKLLEQAGSLKYSL [G22Y], the protein stability index worked out at 2.28.

With RNALENIRKEMKLLEQAGSLKPSL [G22P], the protein stability index came to 3.51.

Take RNALENIRKEMKLLEQAGSLKLSL [G22L]: the protein stability index came to 2.02.

As for RIALENIRKEMKLLEQAGSLKGSL [N2I], the protein stability index was found to be 2.69.

Turning to RDALENIRKEMKLLEQAGSLKGSL [N2D], the protein stability index stood at 3.52.

Turning to RFALENIRKEMKLLEQAGSLKGSL [N2F], the protein stability index came to 2.87.

For RRALENIRKEMKLLEQAGSLKGSL [N2R], the protein stability index was found to be 3.49.

Consider RWALENIRKEMKLLEQAGSLKGSL [N2W], for which the protein stability index turned out to be 2.34.

With RNALENIRKEMKLLEQAGSLEGSL [K21E], the protein stability index worked out at 3.93.

As to RNALENIRKEMKLLEQAGSLWGSL [K21W], the protein stability index was determined as 2.17.

For RNALENIRKEMKLLEQAGSLQGSL [K21Q], the protein stability index was 3.18.

In the case of RNALENIRKEMKLLEQAGSLTGSL [K21T], the protein stability index came to 3.6.

RNALENIRKEMKLLEQAGSLPGSL [K21P]: the protein stability index came out at 2.79.

As for RNALENIRKEMPLLEQAGSLKGSL [K12P], the protein stability index stood at 4.57.

With RNALENIRKEMWLLEQAGSLKGSL [K12W], the protein stability index came out at 1.72.

Take RNALENIRKEMDLLEQAGSLKGSL [K12D]: the protein stability index amounted to 4.23.

Consider RNALENIRKEMLLLEQAGSLKGSL [K12L], for which the protein stability index is 3.55.

As for RNALENIRKEMSLLEQAGSLKGSL [K12S], the protein stability index was 3.53.

On to RNALENIRKEMMLLEQAGSLKGSL [K12M], for which the protein stability index came out at 2.89.

With TNALENIRKEMKLLEQAGSLKGSL [R1T], the protein stability index was found to be 3.87.

MNALENIRKEMKLLEQAGSLKGSL [R1M]: the protein stability index worked out at 3.11.

Turning to DNALENIRKEMKLLEQAGSLKGSL [R1D], the protein stability index worked out at 3.7.

Turning to PNALENIRKEMKLLEQAGSLKGSL [R1P], the protein stability index was determined as 3.37.

For CNALENIRKEMKLLEQAGSLKGSL [R1C], the protein stability index stood at 2.87.

GNALENIRKEMKLLEQAGSLKGSL [R1G]: the protein stability index was determined as 3.82.

In the case of INALENIRKEMKLLEQAGSLKGSL [R1I], the protein stability index came to 2.69.

For the variant NNALENIRKEMKLLEQAGSLKGSL [R1N], the protein stability index worked out at 3.83.

For the variant QNALENIRKEMKLLEQAGSLKGSL [R1Q], the protein stability index is 3.65.

In the case of YNALENIRKEMKLLEQAGSLKGSL [R1Y], the protein stability index is 3.04.

Regarding KNALENIRKEMKLLEQAGSLKGSL [R1K], the protein stability index came to 3.77.

For RNAVENIRKEMKLLEQAGSLKGSL [L4V], the protein stability index was found to be 3.65.

As to RNAHENIRKEMKLLEQAGSLKGSL [L4H], the protein stability index stood at 4.15.

Regarding RNAEENIRKEMKLLEQAGSLKGSL [L4E], the protein stability index came to 4.65.

RNAGENIRKEMKLLEQAGSLKGSL [L4G]: the protein stability index was 3.14.

As for RNAAENIRKEMKLLEQAGSLKGSL [L4A], the protein stability index was found to be 3.93.

With RNACENIRKEMKLLEQAGSLKGSL [L4C], the protein stability index came out at 4.05.

As for RNAWENIRKEMKLLEQAGSLKGSL [L4W], the protein stability index is 3.16.

With RNAIENIRKEMKLLEQAGSLKGSL [L4I], the protein stability index turned out to be 3.21.

As to RNALENIRKCMKLLEQAGSLKGSL [E10C], the protein stability index was determined as 1.83.

On to RNALENIRKFMKLLEQAGSLKGSL [E10F], for which the protein stability index turned out to be 1.61.

Take RNALENIRKNMKLLEQAGSLKGSL [E10N]: the protein stability index came out at 2.89.

Take RNALENIRKRMKLLEQAGSLKGSL [E10R]: the protein stability index was 1.87.

In the case of RNALENIRKGMKLLEQAGSLKGSL [E10G], the protein stability index is 2.87.

RNALENIRKAMKLLEQAGSLKGSL [E10A]: the protein stability index was 2.36.

Take RNALENIRKWMKLLEQAGSLKGSL [E10W]: the protein stability index is 2.89.

Take RNALENIRKIMKLLEQAGSLKGSL [E10I]: the protein stability index stood at 1.92.

Regarding RNALENIRKEMKRLEQAGSLKGSL [L13R], the protein stability index is 3.66.

In the case of RNALENIRKEMKPLEQAGSLKGSL [L13P], the protein stability index worked out at 4.52.

As for RNALENIRKEMKTLEQAGSLKGSL [L13T], the protein stability index was 3.04.

In the case of RNALENIRKEMKGLEQAGSLKGSL [L13G], the protein stability index came out at 4.1.

With RNALENIRKEMKFLEQAGSLKGSL [L13F], the protein stability index was 2.85.

For RNALENIRKEMKHLEQAGSLKGSL [L13H], the protein stability index was 4.32.

RNALENIRKEMKELEQAGSLKGSL [L13E]: the protein stability index is 3.94.

RNALENIRKEMKLLEQAGSLKGST [L24T]: the protein stability index turned out to be 3.47.

For RNALENIRKEMKLLEQAGSLKGSI [L24I], the protein stability index is 3.2.

For the variant RNALENIRKEMKLLEQAGSLKGSE [L24E], the protein stability index amounted to 4.08.

In the case of RNALENIRKEMKLLEQAGSLKGSP [L24P], the protein stability index was determined as 3.77.

With RNALENIRKEMKLLEQAGSLKGSS [L24S], the protein stability index was determined as 3.95.

In the case of RNALENIRKEMKLLEQAGSLKGSW [L24W], the protein stability index is 3.16.

As for RNALENIRKEMKLLEQAGSLKGSA [L24A], the protein stability index is 4.11.

For the variant RNALENIRKEMKLLRQAGSLKGSL [E15R], the protein stability index is 3.63.

For the variant RNALENIRKEMKLLLQAGSLKGSL [E15L], the protein stability index was 2.16.

Turning to RNALENIRKEMKLLAQAGSLKGSL [E15A], the protein stability index was 2.17.

For RNALENIRKEMKLLKQAGSLKGSL [E15K], the protein stability index came out at 2.48.

On to RNALENIRKEMKLLQQAGSLKGSL [E15Q], for which the protein stability index came to 3.57.

Consider RNALENIRKEMKLLTQAGSLKGSL [E15T], for which the protein stability index was found to be 3.08.

With RNALENIRKEMKLLWQAGSLKGSL [E15W], the protein stability index was 1.49.

Regarding RNALENIRKEMKLLVQAGSLKGSL [E15V], the protein stability index was 2.39.

With RNALENIRKEMKLLMQAGSLKGSL [E15M], the protein stability index was 2.87.

For the variant RNALENIRKEMKLLCQAGSLKGSL [E15C], the protein stability index worked out at 3.2.

Turning to RNALENIRKEMKLLFQAGSLKGSL [E15F], the protein stability index was 2.9.

Take RNALENIRKEMKLLDQAGSLKGSL [E15D]: the protein stability index worked out at 3.63.

For RNALENIRKEMKLVEQAGSLKGSL [L14V], the protein stability index was 3.85.

As to RNALENIRKEMKLCEQAGSLKGSL [L14C], the protein stability index was 3.39.

Turning to RNALENIRKEMKLREQAGSLKGSL [L14R], the protein stability index came to 3.93.

In the case of RNALENIRKEMKLMEQAGSLKGSL [L14M], the protein stability index amounted to 2.68.

On to RNALENIRKEMKLLEQAGSSKGSL [L20S], for which the protein stability index was determined as 3.98.

On to RNALENIRKEMKLLEQAGSQKGSL [L20Q], for which the protein stability index came to 4.71.

Turning to RNALENIRKEMKLLEQAGSHKGSL [L20H], the protein stability index worked out at 3.99.

As to RNALENIRKEMKLLEQAGSKKGSL [L20K], the protein stability index was 4.55.

Consider RNALENIRKEMKLLEQAGSGKGSL [L20G], for which the protein stability index worked out at 4.08.

For the variant RNALENIRKEMKLLEQAGSFKGSL [L20F], the protein stability index worked out at 2.86.

With RNALENIRKEMKLLEQAGSYKGSL [L20Y], the protein stability index was found to be 3.9.

Regarding RNALENIRKEMKLLEQAGSTKGSL [L20T], the protein stability index stood at 3.56.

For RNALENIRKEMKLLEQAGSEKGSL [L20E], the protein stability index is 4.79.

On to RNALEPIRKEMKLLEQAGSLKGSL [N6P], for which the protein stability index was 3.4.

Take RNALEYIRKEMKLLEQAGSLKGSL [N6Y]: the protein stability index worked out at 2.53.

RNALEKIRKEMKLLEQAGSLKGSL [N6K]: the protein stability index was determined as 3.06.

With RNALEAIRKEMKLLEQAGSLKGSL [N6A], the protein stability index stood at 3.66.

Consider RNALEQIRKEMKLLEQAGSLKGSL [N6Q], for which the protein stability index came to 3.03.

For the variant RNALELIRKEMKLLEQAGSLKGSL [N6L], the protein stability index is 2.17.

For the variant RNALECIRKEMKLLEQAGSLKGSL [N6C], the protein stability index is 2.33.
